# Source: US8785391B2, “Compound and method for treatment of alzheimer's disease and familial dementia” (Alphabeta AB, priority 2010, dated 2014)
# B1: Bri2(90-236): recombinant protein of residues 90-236 of human Bri2 (SEQ ID NO: 2), encompassing the Brichos domain, expressed in E. coli (protein, listed as Homo sapiens)
# chain: GIKYIKDDVILNEPSADAPAALYQTIEENIKIFEEEEVEFISVPVPEFADSDPANIVHDFNKKLTAYLDLNLDKCYVIPLNTSIVMPPRNLLELLINIKAGTYLPQSYLIHEHMVITDRIENIDHLGFFIYRLCHDKETYKLQRRET
# Tests used:
# [1] = target: T1, ABri23 (Homo sapiens, UniProt Q9Y287); test: ESI-MS binding of Bri2(90-236) to ABri23
# T1 construct: purchased Bachem (Bubendorf, Switzerland)
# Experimental: (§1) Prior to electrospray ionization mass spectrometry (ESI-MS), purified Bri2(90-236) (SEQ ID NO: 2) was rebuffered into 10 mM ammonium acetate, pH 7.0, using spin columns with a 3 kDa cut-off limit (Nanosep, Pall Corp., East Hills, N.Y., USA). Protein and peptides were mixed at 22° C. directly before analysis at a final protein concentration of 20 μM and a final peptide concentration of 50 μM. Data was acquired using a QTOF Ultima API mass spectrometer (Waters, Milford, Mass., USA) equipped with a Z-spray source operated in the positive-ion mode. Samples were introduced via nano-electrospray using metal-plated borosilicate glass capillary needles (Proxeon, Denmark). The source temperature was 80° C., the capillary voltage 1.7 kV, and the cone and RF lens 1 potentials were 100 and 38 V, respectively. The mass spectrometer was operated in single-reflector mode at a resolution of 10 000 (full width half maximum definition), and the mass scale was calibrated using myoglobin. Scans were acquired at a rate of 1 scan per 2 sec between 500 and 4000 m/z. The collision gas was argon at 5.2×10^−5 mbar. Mass spectra were smoothed using the Waters MassLynx software.
# All peptides, with the exception of KFFEYNGKKFFE (SEQ ID NO: 15), ABri23 (SEQ ID NO: 4) and Aβ1-40 (SEQ ID NO: 11), were purchased from Thermo Electron (Darmstadt, Germany). KFFEYNGKKFFE was purchased from Interactiva (Ulm, Germany) and Aβ1-40 and disulfide-linked ABri23 were from Bachem (Bubendorf, Switzerland).
# Peptides, except for KFFEYNGKKFFE, ABri23 and Aβ1-40, were acetylated at the N-terminus and amidated at the C-terminus. […]
# (§2) ESI-MS binding experiments were conducted to investigate whether Bri2(90-236) can bind the peptides ABri23 and Aβ1-40. For this purpose, Bri2(90-236) was mixed with ABri23, Aβ1-40, or an equimolar mixture of ABri23 and Aβ1-40, to a final concentration of 20 μM Bri2(90-236) and 50 μM of each peptide, and analyzed by ESI-MS. Mass spectra were recorded to investigate the presence and stoichiometry of protein-peptide complexes in the gas phase.
# [2] = target: T2, Aβ1-40 (Homo sapiens, UniProt P05067); test: ESI-MS binding of Bri2(90-236) to Aβ1-40
# T2 construct: made in house; host or cells: E. coli
# Experimental: as §1, with “The mass spectrometer was operated in single-reflector mode at a resolution of 10 000 (full width half maximum definition), and the mass scale was calibrated using myoglobin. Scans were acquired at a rate of 1 scan per 2 sec between 500 and 4000 m/z. The collision gas was argon at 5.2×10^−5 mbar. Mass spectra were smoothed using the Waters MassLynx software.” left out
# as §2
# [3] = target: T2, Aβ1-40; test: Thioflavin T fluorescence of Aβ1-40 aggregation (Example 3); assay type: biochemical; conditions: 25 μM Aβ1-40, Aβ/Bri2(90-236) molar ratios 1:1, 2:1, 10:1, 37° C., pH 7.0, 24 h period studied
# Experimental: 25 μM of Aβ1-40 (SEQ ID NO: 11) was incubated with or without recombinant Bri2(90-236) (SEQ ID NO: 2) in 20 mM phosphate buffer, pH 7.0 at 37° C. for 48 h, with 200 rpm agitation, at Aβ/Bri2(90-236) molar ratios of 1:1, 2:1, or 10:1. Aβ1-40 was dissolved in 100% DMSO to 250 μM stock solution, which was diluted to working concentrations. For Thioflavin T (ThT) fluorescence measurements, 10 μl aliquots were removed at different time points, 10 μM ThT (Aldrich) added, and fluorescence was measured with a […] fluorescence plate reader (GE Healthcare), emission wavelength is 480 nm, excitation wavelength 440 nm. Measurements of ThT were done in duplicates.
# [4] = target: T2, Aβ1-40; test: Electron microscopy of Aβ1-40 pellets; assay type: biochemical; conditions: co-incubation with Aβ1-40, 1:1 molar ratio, 5 days
# Experimental: […] Aβ1-40 was dissolved in 100% DMSO to 250 μM stock solution, which was diluted to working concentrations. For Thioflavin T (ThT) fluorescence measurements, 10 μl aliquots were removed at different time points, 10 μM ThT (Aldrich) added, and fluorescence was measured with a […] fluorescence plate reader (GE Healthcare), emission wavelength is 480 nm, excitation wavelength 440 nm. Measurements of ThT were done in duplicates. For analysis of soluble Aβ1-40 and ultrastructure of Aβ aggregates, aliquots were removed and centrifuged at 3300 g for 9 min. The supernatant was analyzed by SDS-PAGE and pellets were resuspended in 200 μl distilled water, 2 μl of the resuspension was added onto 200 mesh copper electron microscopy grids, stained with 2% uranyl acetate for 30 s, then left to dry at 20° C. A Hitachi H 7100 microscope operated at 75 kV was used for examination and photographing.
# T2 sequence (P05067 672-711): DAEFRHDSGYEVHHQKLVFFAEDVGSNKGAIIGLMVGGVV
molecule,measurement,setting,value
B1,Bri2(90-236)/ABri23 complex in competition experiment,"[1]; 20 μM Bri2(90-236) with 50 μM Aβ1-40 and 50 μM ABri23 (equimolar), ESI-MS",nearly all detectable recombinant Bri2(90-236) is complexed with ABri23
same,saturation of Bri2(90-236) with ABri23 (complex formation),"[1]; 20 μM Bri2(90-236), 50 μM oxidized ABri23 (2.5-fold molar excess), ESI-MS conditions",near-complete saturation
same,binding preference ABri23 versus Aβ1-40,"[1]; competition, both peptides at equimolar amounts, ESI-MS",preferentially binds ABri23
same,Bri2(90-236)/Aβ1-40 complex in competition experiment,[2]; 20 μM Bri2(90-236) with 50 μM Aβ1-40 and 50 μM ABri23 (equimolar),only minor signals
same,amount of Bri2(90-236)/Aβ1-40 complexes observed,"[2]; 20 μM Bri2(90-236), 50 μM freshly dissolved Aβ1-40 (2.5 fold excess)",Only small amounts
same,ThT positive aggregates of Aβ1-40,[3],no ThT positive aggregates were found
same,amount of Aβ1-40 amyloid-like fibrils in pellets (electron microscopy),[4],lower amounts of fibrils
